Publication PMC8501077 (Nature Communications, 2021)

Key:
[1] = target: FLAG-tagged Sei1∆231-243, locking helix replaced by a flexible linker (S. cerevisiae) (UniProt Q06058); assay: cryo-EM structure; single-particle cryo-EM of FLAG-purified protein in DDM/CHS (50 mM Tris.HCl pH7.4, 200 mM NaCl, 1 mM EDTA); C10 symmetry applied
[2] = target: the molecule itself; assay: as above

Row | stoichiometry N [1] | Molecule | stoichiometry N [2]
1 | 10 | FLAG-tagged Sei1∆231-243, locking helix replaced by a flexible linker (from UniProt Q06058 1-230; Q06058 244-285) (natural protein) | –
2 | – | C-terminally 3xFLAG tagged Sei1 (yeast Seipin) (natural protein, S. cerevisiae, Sei1, the yeast Seipin, S. cerevisiae; model built for residues 24-132 and 145-265; also called Sei1-FLAG; WT Sei1; source: S. cerevisiae, plasmid-borne, in detergent extract of crude membranes; not shown: 3xFLAG, C-terminal, kept; copies: 10) MKINVSRPLQFLQWSSYIVVAFLIQLLIILPLSILIYHDFYLRLLPADSSNVVPLNTFNILNGVQFGTKFFQSIKSIPVGTDLPQTIDNGLSQLIPMRDNMEYKLDLNLQLYCQSKTDHLNLDNLLIDVYRGPGPLLGAPGGSNSKDEKIFHTSRPIVCLALTDSMSPQEIEQLGPSRLDVYDEEWLNTIRIEDKISLESSYETISVFLKTEIAQRNLIIHPESGIKFRMNFEQGLRNLMLRKRFLSYIIGISIFHCIICVLFFITGCTAFIFVRKGQEKSKKHS | 10
